According to paper doi:10.1101/2024.01.24.577129:

Target: RGY-hIgG1-34-1-2S (mouse | human | not stated)
Experiment: negative stain electron microscopy; antibody in solution diluted to 0.01 mg/ml in 25 mM HEPES, 100 mM NaCl, on carbon-coated grids, 0.75% uranyl formate

B1: RGY-hIgG1-34-1-2S (antibody, V domains shown)
VH: EVQLQQSGAEFVRPGASVKLSCTASGFNLKDDYMFWVKQRPEQGLEWIGWIAPDNGDTEYASKFQGKATITADTSSNTAYVQLSSLTSEDTAVYYCTTWGYYSYVNYWGQGTTLTVSS
VL: DIQMTQSPSSLSASLGERVSLTCRASQDIGSNLNWLQQEPDGTIKRLIYATYSLDSGVPKRFSGSRSGSDYSLTISSLESEDFVDYYCLQYASSPYTFGGGTKLEIK
B1 was tested, and the stoichiometry N was 6.
